Common to all, as to test: cell-based or functional assay
One assay has as its target hGLP-1R (Homo sapiens, UniProt P43220).
Assay [1] has as its target T1, human GIP receptor (human) (UniProt P48546).
T1 sequence (looked up): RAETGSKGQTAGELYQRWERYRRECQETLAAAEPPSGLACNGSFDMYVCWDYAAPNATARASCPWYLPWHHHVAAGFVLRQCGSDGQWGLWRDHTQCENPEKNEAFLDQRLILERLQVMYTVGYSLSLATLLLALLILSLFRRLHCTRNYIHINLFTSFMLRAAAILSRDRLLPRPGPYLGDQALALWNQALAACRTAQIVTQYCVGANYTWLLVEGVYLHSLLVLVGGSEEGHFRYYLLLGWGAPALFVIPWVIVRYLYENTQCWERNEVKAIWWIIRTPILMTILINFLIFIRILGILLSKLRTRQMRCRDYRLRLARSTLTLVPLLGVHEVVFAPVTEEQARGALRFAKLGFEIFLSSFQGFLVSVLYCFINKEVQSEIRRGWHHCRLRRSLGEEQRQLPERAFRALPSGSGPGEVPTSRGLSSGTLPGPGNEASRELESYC

The target in assay [2] is human glucagon receptor (human) (UniProt P47871).

Our source for the Relative cAMP EC50, cAMP Rel EC50 (in the presence of 1% HSA) and cAMP Rel EC50 (1% HSA) values is patent publication US20240270821A1, “GIP/GLP1/GCG TRI-RECEPTOR AGONISTS AND USES THEREOF” (priority 2023, published 2024).

human glucagon receptor (human), sequence (P47871 26-477): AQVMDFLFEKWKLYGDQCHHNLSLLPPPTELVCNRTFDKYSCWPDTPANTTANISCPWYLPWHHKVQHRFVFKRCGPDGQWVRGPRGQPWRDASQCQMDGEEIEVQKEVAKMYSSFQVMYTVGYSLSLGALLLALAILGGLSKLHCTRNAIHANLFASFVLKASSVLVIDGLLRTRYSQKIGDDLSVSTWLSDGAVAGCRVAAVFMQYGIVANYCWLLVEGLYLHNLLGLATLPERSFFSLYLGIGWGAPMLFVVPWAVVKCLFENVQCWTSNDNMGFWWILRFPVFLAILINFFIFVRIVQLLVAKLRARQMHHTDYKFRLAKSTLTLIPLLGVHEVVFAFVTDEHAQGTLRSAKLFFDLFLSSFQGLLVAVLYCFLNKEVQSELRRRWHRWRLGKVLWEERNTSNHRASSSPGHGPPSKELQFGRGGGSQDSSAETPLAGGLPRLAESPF
hGLP-1R, sequence (P43220 24-463): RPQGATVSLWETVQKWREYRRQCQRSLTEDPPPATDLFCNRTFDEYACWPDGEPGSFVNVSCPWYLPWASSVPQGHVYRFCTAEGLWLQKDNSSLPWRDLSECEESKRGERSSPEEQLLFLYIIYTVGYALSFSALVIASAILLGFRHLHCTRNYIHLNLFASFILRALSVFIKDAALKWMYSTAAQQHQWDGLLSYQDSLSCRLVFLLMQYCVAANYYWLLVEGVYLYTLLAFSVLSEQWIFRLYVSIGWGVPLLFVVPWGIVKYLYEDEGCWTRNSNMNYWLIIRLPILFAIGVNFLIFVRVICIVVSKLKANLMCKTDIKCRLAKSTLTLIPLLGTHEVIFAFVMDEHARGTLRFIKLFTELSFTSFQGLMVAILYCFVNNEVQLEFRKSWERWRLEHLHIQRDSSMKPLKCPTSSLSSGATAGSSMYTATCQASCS

B1: Example 640 (peptide)
chain: YXQGTXTSDXSIXLDXKAQXEFIEXLIEGGPSSGAPPPSGS
modifications: non-natural residues; Lys acylated C18 diacid; C-terminal amide; synthetic construct; SITE 2: note = 2-Aminoisobutyric Acid; SITE 6: note = alpha-methyl-2-fluoro-L-phenylalanine; SITE 10: note = 3-(4-Pyridyl)-L-alanine; SITE 13: note = alpha-methyl-leucine; SITE 16: note = L-ornithine; SITE 17: note = Lysine is chemically modified through conjugation of the epsil
As to B1, the Relative cAMP EC50 was found to be 0.288 nM with hGLP-1R, 0.00696 nM in assay [1] and 9.5 nM in assay [2]. For the same molecule, the cAMP Rel EC50 (in the presence of 1% HSA) was 27.8 nM with hGLP-1R, 0.591 nM in assay [1] and 730 nM in assay [2].

B2: Example 642 (peptide)
chain: YXQGTXTSDXSIXLDXKAQXEFIEXLAEGGPSSGAPPPSGS
modifications: non-natural residues; acylated Lys; C-terminal amide; synthetic construct; SITE 2: note = 2-Aminoisobutyric Acid; SITE 6: note = alpha-methyl-2-fluoro-L-phenylalanine; SITE 10: note = 3-(4-Pyridyl)-L-alanine; SITE 13: note = alpha-methyl-leucine; SITE 16: note = L-ornithine; SITE 17: note = Lysine is chemically modified through conjugation of the epsil
In the case of B2, the Relative cAMP EC50 is 0.474 nM with hGLP-1R, 0.00796 nM in assay [1] and 3.49 nM in assay [2]. Besides, the cAMP Rel EC50 (in the presence of 1% HSA) worked out at 67.1 nM with hGLP-1R, 0.791 nM in assay [1] and 519 nM in assay [2].

B3: Example 641 (peptide)
chain: YXQGTXTSDXSIXLDXKAQXEFIEXLLEGGPSSGAPPPSGS
modifications: Lys acylated AEEA-γGlu-C18 diacid; non-natural residues; C-terminal amide; synthetic construct; SITE 2: note = 2-Aminoisobutyric Acid; SITE 6: note = alpha-methyl-2-fluoro-L-phenylalanine; SITE 10: note = 3-(4-Pyridyl)-L-alanine; SITE 13: note = alpha-methyl-leucine; SITE 16: note = L-ornithine; SITE 17: note = Lysine is chemically modified through conjugation of the epsil
B3: the Relative cAMP EC50 worked out at 0.489 nM in the assay with hGLP-1R, 0.00819 nM in assay [1] and 3.72 nM in assay [2]. The cAMP Rel EC50 (in the presence of 1% HSA) with hGLP-1R came to 68.3 nM; in assay [1] it was 0.832 nM; in assay [2] it was 451 nM.

B4: Example 645 (peptide)
chain: YXQGTXTSDXSIXLDXKAQXEFIEXLLEGGPSSGEPPPSGS
modifications: non-natural residues; lipidated Lys; C-terminal amide; synthetic construct; SITE 2: note = 2-Aminoisobutyric Acid; SITE 6: note = alpha-methyl-2-fluoro-L-phenylalanine; SITE 10: note = 3-(4-Pyridyl)-L-alanine; SITE 13: note = alpha-methyl-leucine; SITE 16: note = L-ornithine; SITE 17: note = Lysine is chemically modified through conjugation of the epsil
On to B4, for which the Relative cAMP EC50 was determined as 0.596 nM with hGLP-1R, 0.00724 nM in assay [1] and 3.25 nM in assay [2]. Moreover, the cAMP Rel EC50 (in the presence of 1% HSA) with hGLP-1R came out at 76.3 nM; in assay [1] it was 0.863 nM; in assay [2] it was 398 nM.

B5: Example 646 (peptide)
chain: YXQGTXTSDXSIXLDXKAQXEFIEXLAEGGPSSGAPPPSGS
modifications: Aib, αMeF(2F), 4Pal, Orn, Me4Pal, αMeY; K (γGlu)2-C18 diacid; amide; synthetic construct; SITE 2: note = 2-Aminoisobutyric Acid; SITE 6: note = alpha-methyl-2-fluoro-L-phenylalanine; SITE 10: note = 3-(4-Pyridyl)-L-alanine; SITE 13: note = alpha-methyl-leucine; SITE 16: note = L-ornithine; SITE 17: note = Lysine is chemically modified through conjugation of the epsil
On to B5, for which the Relative cAMP EC50 with hGLP-1R came out at 2.58 nM; in assay [1], 0.0336 nM; in assay [2], 23.1 nM. Further, the cAMP Rel EC50 (in the presence of 1% HSA) amounted to 90.5 nM with hGLP-1R, 1.09 nM in assay [1] and 1260 nM in assay [2].

B6: Example 643 (peptide)
chain: YXQGTXTSDXSIXLDXKAQXEFIEXLQEGGPSSGAPPPSGS
modifications: non-natural residues, acylated Lys (AEEA-γGlu-C18 diacid), C-terminal amide; synthetic construct; SITE 2: note = 2-Aminoisobutyric Acid; SITE 6: note = alpha-methyl-2-fluoro-L-phenylalanine; SITE 10: note = 3-(4-Pyridyl)-L-alanine; SITE 13: note = alpha-methyl-leucine; SITE 16: note = L-ornithine; SITE 17: note = Lysine is chemically modified through conjugation of the epsil
Consider B6, for which the Relative cAMP EC50 with hGLP-1R was found to be 0.741 nM; in assay [1] it was 0.0223 nM; in assay [2] it was 16 nM. The cAMP Rel EC50 (in the presence of 1% HSA) with hGLP-1R was determined as 60.1 nM; in assay [1], 1.61 nM; in assay [2], 1170 nM.

B7: Example 644 (peptide)
chain: YXQGTXTSDXSIXLDXKAQXEFIEXLIEGGPSSGEPPPSGS
modifications: non-natural residues; lipidated Lys AEEA-γGlu-C18 diacid; C-term amide; synthetic construct; SITE 2: note = 2-Aminoisobutyric Acid; SITE 6: note = alpha-methyl-2-fluoro-L-phenylalanine; SITE 10: note = 3-(4-Pyridyl)-L-alanine; SITE 13: note = alpha-methyl-leucine; SITE 16: note = L-ornithine; SITE 17: note = Lysine is chemically modified through conjugation of the epsil
Turning to B7, the figures for the Relative cAMP EC50 (with hGLP-1R; in assay [1]; in assay [2]) were 0.309 nM, 0.00649 nM and 5.91 nM, respectively. In addition, the cAMP Rel EC50 (in the presence of 1% HSA) was 34.3 nM with hGLP-1R, 0.601 nM in assay [1] and 626 nM in assay [2].

B8: Example 672 (peptide)
chain: YXQGTXTSDXXIXLDXKAAXEFIEXLLEGGPSSGAPPPSGS
modifications: synthetic construct; SITE 2: note = 2-Aminoisobutyric Acid; SITE 6: note = alpha-methyl-2-fluoro-L-phenylalanine; SITE 10: note = 3-(4-Pyridyl)-L-alanine; SITE 11: note = alpha-methyl-L-serine; SITE 13: note = alpha-methyl-leucine; SITE 16: note = L-ornithine; SITE 17: note = Lysine is chemically mo
On to B8, for which the cAMP Rel EC50 (1% HSA) came out at 49.4 nM in the assay with hGLP-1R, 1.53 nM in assay [1] and 162 nM in assay [2].

B9: Example 639 (peptide)
chain: YXQGTXTSDXSIXLDKKAQXXFIEYLQEGGPSSGEPPPSGSEE
modifications: non-natural residues; K acylated (γGlu)2-C18 diacid; C-amide; synthetic construct; SITE 2: note = 2-Aminoisobutyric Acid; SITE 6: note = alpha-methyl-2-fluoro-L-phenylalanine; SITE 10: note = 3-(4-Pyridyl)-L-alanine; SITE 13: note = alpha-methyl-leucine; SITE 17: note = Lysine is chemically modified through conjugation of the epsilon-amino group of the Lysine
As to B9, the Relative cAMP EC50 came out at 0.374 nM in the assay with hGLP-1R, 0.0231 nM in assay [1] and 8 nM in assay [2]. The figures for the cAMP Rel EC50 (in the presence of 1% HSA) (in the assay with hGLP-1R; in assay [1]; in assay [2]) were 27.9 nM, 2.04 nM and 750 nM, respectively.

B10: Example 656 (peptide)
chain: YXQGTXTSDXXIXLDXKAQXXFIEXLQEGGPSSGEPPPEGTEE
modifications: acyl linker with epsilon-Lys; synthetic construct; SITE 2: note = 2-Aminoisobutyric Acid; SITE 6: note = alpha-methyl-2-fluoro-L-phenylalanine; SITE 10: note = 3-(4-Pyridyl)-L-alanine; SITE 11: note = alpha-methyl-L-serine; SITE 13: note = alpha-methyl-leucine; SITE 16: note = L-ornithine; SITE 17: note = Lysine is chemically mo
Consider B10, for which the cAMP Rel EC50 (1% HSA) worked out at 119 nM with hGLP-1R, 7.13 nM in assay [1] and 662 nM in assay [2].

B11: Example 651 (peptide)
chain: YXQGTXTSDXSIXLDKKAQXXFIEYLSEGGPSSGEPPPEGSEE
modifications: synthetic construct; SITE 2: note = 2-Aminoisobutyric Acid; SITE 6: note = alpha-methyl-2-fluoro-L-phenylalanine; SITE 10: note = 3-(4-Pyridyl)-L-alanine; SITE 13: note = alpha-methyl-leucine; SITE 17: note = Lysine is chemically modified through conjugation of the epsilon-amino group of the Lysine
B11: the cAMP Rel EC50 (1% HSA) amounted to 53.9 nM in the assay with hGLP-1R, 6.3 nM in assay [1] and 639 nM in assay [2].

B12: Example 653 (peptide)
chain: YXQGTXTSDXSIXLDKKAQXXFIEYLQEGGPSSGEPPPEGSEE
modifications: synthetic construct; SITE 2: note = 2-Aminoisobutyric Acid; SITE 6: note = alpha-methyl-2-fluoro-L-phenylalanine; SITE 10: note = 3-(4-Pyridyl)-L-alanine; SITE 13: note = alpha-methyl-leucine; SITE 17: note = Lysine is chemically modified through conjugation of the epsilon-amino group of the Lysine
For B12, the cAMP Rel EC50 (1% HSA) with hGLP-1R stood at 25 nM; in assay [1], 1.38 nM; in assay [2], 542 nM.

B13: Example 652 (peptide)
chain: YXQGTXTSDXSIXLDKKAQXXFIEYLTEGGPSSGEPPPEGSEE
modifications: synthetic construct; SITE 2: note = 2-Aminoisobutyric Acid; SITE 6: note = alpha-methyl-2-fluoro-L-phenylalanine; SITE 10: note = 3-(4-Pyridyl)-L-alanine; SITE 13: note = alpha-methyl-leucine; SITE 17: note = Lysine is chemically modified through conjugation of the epsilon-amino group of the Lysine
Turning to B13, the cAMP Rel EC50 (1% HSA) was found to be 26.8 nM with hGLP-1R, 1.92 nM in assay [1] and 764 nM in assay [2].
